Experimental data from article PMC9900518.

Biological target: GST-BRCA1-CT-M1775R (BRCT), human BRCA1 BRCT domain residues 1599-1863 (human) (UniProt P38398)
Experiment: pull-down; GST-tagged protein immobilised on glutathione-Sepharose beads; purified recombinant His-tagged protein; binding buffer 50 mM Tris-HCl pH 7.4, 100 mM NaCl, 0.4% Nonidet P-40, 10 mM MgCl2, 5 mM EDTA, 2 mM DTT; anti-His immunoblot

fold change of binding against GST-BRCA1 BRCT wild type: 3 to 5 fold
Substance: His-GIV-CT (aa 1660-1870) wild type (domain or fragment)
